Experimental data as given in paper PMC6593402, “The Structure of an Injectisome Export Gate Demonstrates Conservation of Architecture in the Core Export Gate between Flagellar and Virulence Type III Secretion Systems” (mBio, 2019).
Values joined by “and” are separate entries in the source; they are usually repeats but may differ in a detail not shown here. Equal values may be shown once.

T1: Salmonella enterica serovar Typhimurium FliR (Salmonella enterica serovar Typhimurium, UniProt P54702 1-264)
T1 construct: FliR, flagellar export gate component, Salmonella enterica serovar Typhimurium; expressed from the complete operon; 'full length' rests on the words 'the same strategy of expression of the complete operon'; source: purified from membranes
T1 sequence: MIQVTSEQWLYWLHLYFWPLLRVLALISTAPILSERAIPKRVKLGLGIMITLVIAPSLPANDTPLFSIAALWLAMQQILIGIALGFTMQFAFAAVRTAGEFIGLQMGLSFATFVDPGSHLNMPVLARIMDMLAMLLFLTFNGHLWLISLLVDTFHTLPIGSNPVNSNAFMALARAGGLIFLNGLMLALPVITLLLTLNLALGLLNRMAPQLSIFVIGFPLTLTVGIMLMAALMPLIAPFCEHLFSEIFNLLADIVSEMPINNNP

B1: Salmonella enterica serovar Typhimurium FliP (natural protein)
chain: QLPGLISQPLAGGGQSWSLSVQTLVFITSLTFLPAILLMMTSFTRIIIVFGLLRNALGTPSAPPNQVLLGLALFLTFFIMSPVIDKIYVDAYQPFSEQKISMQEALDKGAQPLRAFMLRQTREADLALFARLANSGPLQGPEAVPMRILLPAYVTSELKTAFQIGFTIFIPFLIIDLVIASVLMALGMMMVPPATIALPFKLMLFVLVDGWQLLMGSLAQSFYS
notes: FliP, flagellar export gate component, Salmonella enterica serovar Typhimurium; expressed from the complete operon; source: purified from membranes

Assays:
[1] = target: T1, Salmonella enterica serovar Typhimurium …; assay: cryo-EM structure; re-refinement in RELION-3 of the original S. Typhimurium FliPQR single-particle data of ref. 17 (particle polishing, per-particle CTF refinement), 3.65 Å; coordinates remodeled and re-refined; conditions: both partners purified
[2] = target: B1; assay: as above; conditions: both partners purified
[3] = target: the molecule itself; assay: as above
[4] = target: the molecule itself; assay: cryo-EM structure; SctRST co-expressed from the operon in E. coli, complex purified by the Dual-Strep tag on SctT and SEC; 0.01% LMNG in TBS (100 mM Tris, 150 mM NaCl, 1 mM EDTA, pH 8), 8.4 mg/ml; single-particle reconstruction at 3.5 Å, with further 3D classification of the particle set

Row | Binder | binding result [1] | binding result [2] | binding result [3] | stoichiometry N [4]
1 | Salmonella enterica serovar Typhimurium FliQ (natural protein, FliQ, flagellar export gate component, Salmonella enterica serovar Typhimurium; expressed from the complete operon; 'full length' rests on the words 'the same strategy of expression of the complete operon'; source: purified from membranes) MTPESVMMMGTEAMKVALALAAPLLLVALITGLIISILQAATQINEMTLSFIPKIVAVFIAIIVAGPWMLNLLLDYVRTLFSNLPYIIG | binds | binds | binds | –
2 | Shigella flexneri SctS (Spa9) (natural protein, Spa9 (SctS), export gate component of the Shigella flexneri virulence type III secretion system; expressed from the complete operon (Spa24/Spa9/Spa29); Two to four copies stand in the SctRST complexes; 'full length' rests on the words 'expression of the complete operon'; source: E. coli BL21, co-expressed from plasmid pT12_Spa24929, membranes dissolved in 1% LMNG, purified (StrepTrap, SEC)) MSDIVYMGNKALYLILIFSLWPVGIATVIGLSIGLLQTVTQLQEQTLPFGIKLIGVSISLLLLSGWYGEVLLSFCHEIMFLIKSGV | – | – | – | 2 and 3
3 | B1 | binds | – | binds | –
